# Data reported in article PMC5392361 (Nature chemical biology, 2017).
# T1: Rrp4-exosome WT (Sulfolobus solfataricus, UniProt Q9UXC4;Q9UXC2;Q9UXC0 1-249;1-248;1-275)
# T1 sequence 1: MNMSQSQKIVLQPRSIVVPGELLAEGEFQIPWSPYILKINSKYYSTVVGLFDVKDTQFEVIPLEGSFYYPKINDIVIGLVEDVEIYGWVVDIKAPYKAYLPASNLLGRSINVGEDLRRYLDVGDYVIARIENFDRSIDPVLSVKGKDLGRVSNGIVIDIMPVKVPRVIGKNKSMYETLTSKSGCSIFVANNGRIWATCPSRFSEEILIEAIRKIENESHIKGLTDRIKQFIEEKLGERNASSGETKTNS
# T1 sequence 2: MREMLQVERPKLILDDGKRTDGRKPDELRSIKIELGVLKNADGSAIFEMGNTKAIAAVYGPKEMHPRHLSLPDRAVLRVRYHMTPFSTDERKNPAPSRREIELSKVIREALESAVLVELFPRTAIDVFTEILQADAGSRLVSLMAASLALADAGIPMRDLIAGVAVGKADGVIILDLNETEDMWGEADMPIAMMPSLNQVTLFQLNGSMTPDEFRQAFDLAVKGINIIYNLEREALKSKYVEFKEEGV
# T1 sequence 3: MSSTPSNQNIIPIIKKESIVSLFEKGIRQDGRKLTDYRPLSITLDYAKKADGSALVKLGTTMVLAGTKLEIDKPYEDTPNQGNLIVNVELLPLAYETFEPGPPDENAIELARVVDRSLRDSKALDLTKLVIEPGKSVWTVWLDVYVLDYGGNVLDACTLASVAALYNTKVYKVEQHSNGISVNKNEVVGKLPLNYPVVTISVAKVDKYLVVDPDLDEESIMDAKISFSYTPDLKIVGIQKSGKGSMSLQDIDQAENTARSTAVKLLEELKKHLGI
# T2: Sulfolobus solfataricus Rrp41-Rrp42 exosome core (Sulfolobus solfataricus, UniProt Q9UXC2 1-248; Q9UXC0 1-275)
# T2 sequence 1: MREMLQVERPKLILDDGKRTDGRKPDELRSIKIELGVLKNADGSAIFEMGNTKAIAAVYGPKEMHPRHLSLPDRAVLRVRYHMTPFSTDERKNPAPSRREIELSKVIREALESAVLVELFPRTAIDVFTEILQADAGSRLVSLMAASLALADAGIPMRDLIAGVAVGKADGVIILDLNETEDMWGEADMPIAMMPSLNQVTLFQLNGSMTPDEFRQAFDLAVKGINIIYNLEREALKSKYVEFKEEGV
# T2 sequence 2: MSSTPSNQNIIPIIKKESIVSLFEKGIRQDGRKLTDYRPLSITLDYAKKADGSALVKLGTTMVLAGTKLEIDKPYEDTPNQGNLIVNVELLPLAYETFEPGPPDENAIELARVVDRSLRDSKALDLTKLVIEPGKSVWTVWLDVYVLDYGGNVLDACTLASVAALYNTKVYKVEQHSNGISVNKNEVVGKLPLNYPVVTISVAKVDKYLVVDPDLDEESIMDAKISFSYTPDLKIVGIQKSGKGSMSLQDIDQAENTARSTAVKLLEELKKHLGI
# T3: Rrp4-exosome, Rrp4 3MS K38M (Sulfolobus solfataricus, UniProt Q9UXC4;Q9UXC2;Q9UXC0 1-249;1-248;1-275, M1S;M3S;K38M)
# T3 sequence 1: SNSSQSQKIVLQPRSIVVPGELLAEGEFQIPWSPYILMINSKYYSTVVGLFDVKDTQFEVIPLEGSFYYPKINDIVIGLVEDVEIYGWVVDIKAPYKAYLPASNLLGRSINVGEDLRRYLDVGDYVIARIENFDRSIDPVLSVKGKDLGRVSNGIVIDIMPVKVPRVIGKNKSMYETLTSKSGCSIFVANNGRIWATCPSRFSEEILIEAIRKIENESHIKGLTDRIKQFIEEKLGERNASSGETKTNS
# T3 sequence 2: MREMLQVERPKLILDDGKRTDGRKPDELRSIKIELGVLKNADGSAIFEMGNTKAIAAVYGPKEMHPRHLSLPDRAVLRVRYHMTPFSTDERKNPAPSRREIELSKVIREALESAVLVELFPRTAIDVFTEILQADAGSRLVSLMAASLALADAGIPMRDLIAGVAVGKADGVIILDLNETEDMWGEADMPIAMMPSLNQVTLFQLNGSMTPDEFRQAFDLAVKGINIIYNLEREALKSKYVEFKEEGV
# T3 sequence 3: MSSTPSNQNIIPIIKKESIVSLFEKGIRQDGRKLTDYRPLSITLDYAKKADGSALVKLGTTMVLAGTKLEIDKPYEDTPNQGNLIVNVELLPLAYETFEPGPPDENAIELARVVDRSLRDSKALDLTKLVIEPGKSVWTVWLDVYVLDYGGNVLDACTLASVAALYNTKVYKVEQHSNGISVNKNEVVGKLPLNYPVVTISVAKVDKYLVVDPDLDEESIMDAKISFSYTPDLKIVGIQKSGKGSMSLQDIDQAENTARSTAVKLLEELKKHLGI
# T4: Rrp4-exosome, Rrp4 3MS N171M (Sulfolobus solfataricus, UniProt Q9UXC4;Q9UXC2;Q9UXC0 1-249;1-248;1-275, M1S;M3S;N171M)
# T4 sequence 1: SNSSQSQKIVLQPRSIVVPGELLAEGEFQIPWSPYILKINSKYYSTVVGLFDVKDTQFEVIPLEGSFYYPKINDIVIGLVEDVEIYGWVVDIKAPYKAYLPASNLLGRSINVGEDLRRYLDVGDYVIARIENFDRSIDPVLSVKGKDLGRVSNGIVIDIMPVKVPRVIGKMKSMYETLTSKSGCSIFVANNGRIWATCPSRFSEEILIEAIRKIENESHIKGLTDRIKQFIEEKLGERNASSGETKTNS
# T4 sequence 2: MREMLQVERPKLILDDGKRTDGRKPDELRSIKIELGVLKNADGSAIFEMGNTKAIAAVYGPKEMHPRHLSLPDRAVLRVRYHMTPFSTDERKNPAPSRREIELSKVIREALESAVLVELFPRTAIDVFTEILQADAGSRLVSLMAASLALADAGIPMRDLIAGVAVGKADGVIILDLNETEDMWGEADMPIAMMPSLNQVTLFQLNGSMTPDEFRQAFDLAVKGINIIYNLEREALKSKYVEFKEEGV
# T4 sequence 3: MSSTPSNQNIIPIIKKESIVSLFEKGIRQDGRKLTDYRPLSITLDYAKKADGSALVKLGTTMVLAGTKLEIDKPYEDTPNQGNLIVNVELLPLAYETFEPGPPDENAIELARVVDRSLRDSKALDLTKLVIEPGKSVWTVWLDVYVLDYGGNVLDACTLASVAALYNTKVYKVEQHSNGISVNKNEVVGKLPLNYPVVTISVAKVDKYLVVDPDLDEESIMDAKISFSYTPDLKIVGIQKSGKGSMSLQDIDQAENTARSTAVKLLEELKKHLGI
# T5: Rrp4-exosome, Rrp4 KNK170ENQ (Sulfolobus solfataricus, UniProt Q9UXC4;Q9UXC2;Q9UXC0 1-249;1-248;1-275, M1S;M3S;K170E;K172Q)
# T5 sequence 1: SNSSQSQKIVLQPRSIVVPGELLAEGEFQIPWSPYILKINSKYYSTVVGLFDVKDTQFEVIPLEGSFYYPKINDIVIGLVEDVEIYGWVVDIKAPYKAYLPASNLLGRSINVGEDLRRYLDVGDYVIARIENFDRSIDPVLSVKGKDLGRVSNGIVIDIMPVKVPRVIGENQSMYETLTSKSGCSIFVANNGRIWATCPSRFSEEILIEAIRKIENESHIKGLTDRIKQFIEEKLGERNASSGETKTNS
# T5 sequence 2: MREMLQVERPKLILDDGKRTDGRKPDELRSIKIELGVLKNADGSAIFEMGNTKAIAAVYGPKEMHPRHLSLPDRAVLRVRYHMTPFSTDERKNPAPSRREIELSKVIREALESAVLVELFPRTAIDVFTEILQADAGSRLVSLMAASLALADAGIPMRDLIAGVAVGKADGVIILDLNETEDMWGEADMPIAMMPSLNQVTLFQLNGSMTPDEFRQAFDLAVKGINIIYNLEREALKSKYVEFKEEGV
# T5 sequence 3: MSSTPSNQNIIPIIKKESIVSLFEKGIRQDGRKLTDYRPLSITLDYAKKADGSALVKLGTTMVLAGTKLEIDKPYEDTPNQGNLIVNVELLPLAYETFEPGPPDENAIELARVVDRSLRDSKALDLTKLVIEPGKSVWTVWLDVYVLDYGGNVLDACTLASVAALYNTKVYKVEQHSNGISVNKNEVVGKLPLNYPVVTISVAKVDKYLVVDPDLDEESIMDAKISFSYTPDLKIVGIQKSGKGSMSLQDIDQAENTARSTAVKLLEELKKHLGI
# How the values were obtained:
# Rrp4-exosome WT = target: T1, Rrp4-exosome WT; test: fluorescence anisotropy
# [1] = target: T2, Sulfolobus solfataricus Rrp41-Rrp42 …; test: pull-down
# [2] = target: T3, Rrp4-exosome, Rrp4 3MS K38M; test: NMR methyl TROSY CSP
# [3] = target: T4, Rrp4-exosome, Rrp4 3MS N171M; test: NMR methyl TROSY CSP
# [4] = target: T5, Rrp4-exosome, Rrp4 KNK170ENQ; test: NMR line-shape titration
binder,measurement,setting,value
"long RNA (4-thio-U, fluorescein) (structured_RNA, 4-thiouridine at the single U within the A tail (written U)) RNA: GCCCCCCCCGAAAGGGGGGGGAAAAAAAAAAAAAAAAAAAAAUAAAAAAAAAAAGCU",Kd,Rrp4-exosome WT,0.0675 ± 0.0227 µM
"Sulfolobus solfataricus Rrp4 exosome cap protein (natural protein, UniProt Q9UXC4 1-249, looked up) MNMSQSQKIVLQPRSIVVPGELLAEGEFQIPWSPYILKINSKYYSTVVGLFDVKDTQFEVIPLEGSFYYPKINDIVIGLVEDVEIYGWVVDIKAPYKAYLPASNLLGRSINVGEDLRRYLDVGDYVIARIENFDRSIDPVLSVKGKDLGRVSNGIVIDIMPVKVPRVIGKNKSMYETLTSKSGCSIFVANNGRIWATCPSRFSEEILIEAIRKIENESHIKGLTDRIKQFIEEKLGERNASSGETKTNS",binding result,[1],binds
"NMR substrate RNA (hairpin-A32, cyclic phosphate) (structured_RNA, 2'-3' cyclic phosphate at 3' end) RNA: GCCCCCCCCGAAAGGGGGGGGAAAAAAAAAAAAAAAAAAAAAAAAAAAAAAAA",binding result,[2],binds
same,binding result,[3],binds
same,Kd,[4],60.5 ± 4.6 µM
